Measured values reported in patent publication US20230090771A1 (REGENTS OF THE UNIVERSITY OF MINNESOTA, published 2023).
Changes are numbered by the printed parent chain. Names may count otherwise.

T1: his6-SonA, split borosin precursor SonA (Shewanella oneidensis) with N-terminal hexa-histidine tag, co-expressed with SonM
T1 chain: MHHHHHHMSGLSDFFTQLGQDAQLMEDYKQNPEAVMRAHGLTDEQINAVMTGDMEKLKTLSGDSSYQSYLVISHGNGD

T2: his6-SonA, split borosin precursor SonA (Shewanella oneidensis) with N-terminal hexa-histidine tag, … (Shewanella oneidensis, alpha-N-methylations on L63 and I65 (the vast majority purified in the 2-alpha-N-methylated state))
T2 construct: This complex was used for crystallisation; also called WP_011071666
T2 chain: T1 chain

T3: his6-SonA (Shewanella oneidensis), expressed alone as substrate for kinetics
T3 chain: T1 chain

B1: split borosin alpha-N-methyltransferase SonM (Shewanella oneidensis), untagged, co-expressed with his6-SonA (enzyme)
chain: MGSLVCVGTGLQLAGQISVLSRSYIEHADIVFSLLPDGFSQRWLTKLNPNVINLQQFYAQNGEVKNRRDTYEQMVNAILDAVRAGKKTVCALYGHPGVFACVSHMAITRAKAEGFSAKMEPGISAEACLWADLGIDPGNSGHQSFEASQFMFFNHVPDPTTHLLLWQIAIAGEHTLTQFHTSSDRLQILVEQLNQWYPLDHEVVIYEAANLPIQAPRIERLPLANLPQAHLMPISTLLIPPAKKLEYNYAILAKLGIGPEDLG
notes: also called WP_011071665
B2: his6-SonM wild type (Shewanella oneidensis), expressed alone for kinetics (protein)
chain: MHHHHHHSSMGSLVCVGTGLQLAGQISVLSRSYIEHADIVFSLLPDGFSQRWLTKLNPNVINLQQFYAQNGEVKNRRDTYEQMVNAILDAVRAGKKTVCALYGHPGVFACVSHMAITRAKAEGFSAKMEPGISAEACLWADLGIDPGNSGHQSFEASQFMFFNHVPDPTTHLLLWQIAIAGEHTLTQFHTSSDRLQILVEQLNQWYPLDHEVVIYEAANLPIQAPRIERLPLANLPQAHLMPISTLLIPPAKKLEYNYAILAKLGIGPEDLG
B3: SonM mutant R67K (protein)
chain: B2 chain with R76K
B4: SonM mutant Y93F (protein)
chain: B2 chain with Y102F
B5: SonM mutant Y58F (protein)
chain: B2 chain with Y67F
B6: SonM mutant Y71F (protein)
chain: B2 chain with Y80F

Tests used:
[1] = molecular target: T1, his6-SonA, split borosin precursor SonA …
[2] = molecular target: T2, his6-SonA, split borosin precursor SonA …; experiment: co-purification of untagged SonM with his6-SonA by nickel affinity and size exclusion chromatography, SDS-PAGE
[3] = molecular target: T3, his6-SonA (Shewanella oneidensis), …

binding result [2] | Binder | MS1 alpha-N-methylation profile of SonA co-purified with SonM [1] | substrate turnover (coupled-enzyme Michaelis-Menten kinetics) [3]
binds | B1 | the vast majority of SonA is purified as the 2-alpha-N-methylated state | 
 | B2 |  | SonM wild type (WT) and several active-site mutants reveal multiple SonA substrate turnover
 | B3 |  | SonM wild type (WT) and several active-site mutants reveal multiple SonA substrate turnover
 | B4 |  | SonM wild type (WT) and several active-site mutants reveal multiple SonA substrate turnover
 | B5 |  | SonM wild type (WT) and several active-site mutants reveal multiple SonA substrate turnover
 | B6 |  | SonM wild type (WT) and several active-site mutants reveal multiple SonA substrate turnover
